Results on 19 sequences are retold here after a protein production outcome set (Wang et al. 2014).

This data set can be described thus: label from the status in PepcDB records.

“MSLKYIIGMDVGTTATKGVLYDINGKAVASVSKGYPLIQTKVGQAEEDPKLIFDAVQEIIFDLTQKIDGKIAAISWSSQMHSLIGLGSDDELLTNSITWADNCAKSIVQDAKNRGFAQQIYRKTGMPMHPMAPIYKLLWLKNKKTEVFSQAQKWIGIKEYIIFRLTGKLVTDTTMAAGTGILNLKTLTWDQELLDILKIKKEQLPKIAQPTKVIFPIKTEYVKKLGIDSDTKIILGASDGYLSTIGVNAIDSDHCALNVGTSGAIRTIVDQPKIDPSASYFCYPADKTHYLLGGPVNNGGIVFNWARQTLFDADETPQDFLDVAQTAPAGSRNLIFLPYLGGERAPIWDANARGSFVGLTRMHQKPEMARAVIEGIIFNLYDAASNLIKNTKKPVAINATGGFLKSDFVRQLCANIFNVPIVTMKEQQSGTLAAMFLARQALGLNQDLSEIGQFAQADKVYFPNPKEAATYQKLFPLYCEIRNALAASYGKFSNINEGHHHHHH”: the protein production result was “not failed”.

For “MSLLHIAVLLPLIFALIIPFLYRFVKRIHLGWFVLPVPIVLFIYFISLISMTMSGNNVMKNLNWMPHIGMNFNLYVDGLGLLFSLLITGIGSLVVLYSIGYLSKSEQLGNFYCYLLLFMGAMLGVVLSDNFIILYLFWELTSFSSFLLISFWREKKASIYGAQKSLIITVLGGLSMLGGIILLSLATDTFSIQAMISKASDIQNSPFFILVMILFMIGAFTKSAQVPFYIWLPDAMEAPTPVSAYLHSATMVKAGLYLIARITPIFAISEGWVWTITLVGLITLFWASLNATKQHDLKGILAFSTVSQLGMIMSMLGIGAVSYHYQGANSQLYVAGFVAAIFHLINHATFKGALFMITGGIDHSTGTRDVKKLGGLLTIMPISFTLTVITTLSMAGVPPFNGFLSKEKFLESMINVTHLNLMSLNTLGILLPIIAIIGSIFTFVYSIKFILHIFFGSYKPEALPKQAHESSILMLISPIILTSLVIVFGLFPSILTQSIIEPASVAVSQTSNITAEFHLFHGITPAFLSTIGIYIIGILLLISFSYWVRLLQAHPYQLTLNHWYDTSGQRIPGYSENITNSYVTGFSRNNLVIILGILIALTFVTVISVPFSIDFKNVSHLRVFEGATVLFLLIASTFIIFAKSRLFSIIMLSAVGYAISVLFIFFKAPDLALTQFVVESISTALFLLCFYHLPNLNRYNEKPTFKLTNAVISIGVGLSVIILGLIGYGNRHFDSITKFYQEHVFDLAHGKNMVNVILVDFRGMDTLFESSVLGIAGLGVYTMIKLRLKQKNQSSEVNDHE”, the protein production entry is on record as “failed”.

Take “MSLLTLAFNPQPRAKTYCSGPILRVSGVWAVKILYIVLDGAADSPTSPRKTLEEASKPNIDSLGSHAVCGMVYTVKPGVAPQSDYATLSLLGYNPDEYYPGRGPLEAFGAGIEMRRGDIALRANFATVDPGTLRIIDRRVGRSLTSREARELASAVDGMELEDGEGTALFRATIGHRGVLVLRHRSKPLSDAISNTDPAYERRGRFSVALEKYEPFIKLSNPLVEDEAAVLAARMLNEFTLKAVEILDSHPVNLAREKRGLLKANAILSRDAGGLPEEKPPSFQERFGLRGASIVEMVVERGISRYIGLDDIRVEIEGRAREEVYREEAARAVEALETHDLVYVHLKGPDEPGHDGSFEGKIRAVEDIDKHFFAPLLDRLSSAGLEPAFVVTSDHATPWDVGAHSGDPVPLMISHQSIQGSIGKFSETVCLRGRLGTIIGGYRIIPKTLSLLAGLEHHHHHH”: the protein production result is “not failed”.

With “MSLNGSSIIEFEDMTWSQQVEDSKKPVVVMFYSPACPYCKAMEPYFEEYAKEYGSSAVFGRINIATNPWTAEKYGVQGTPTFKFFCHGRPVWEQVGQIYPSILKNAVRDMLQHGEECIRKSTPVGQDITGYVEGHHHHHH”, the protein production entry is reported as “not failed”.

As for “MSLNILVIGTGAIGSFYGALLAKTGHCVSVVARSDYETVKAKGIRIRSATLGDYTFRPAAVVRSAAELETKPDCTLLCIKVVEGADRVGLLRDAVAPDTGIVLISNGIDIEPEVAAAFPDNEVISGLAFIGVTRTAPGEIWHQAYGRLMLGNYPGGVSERVKTLAAAFEEAGIDGIATENITTARWQKCVWNAAFNPLSVLSGGLDTLDILSTQEGFVRAIMQEIRAVAAANGHPLPEDIVEKNVASTYKMPPYKTSMLVDFEAGQPMETEVILGNAVRAGRRTRVAIPHLESVYALMKLLELRTSKSLWGNEGHHHHHH”, the protein production result was “not failed”.

In the case of “MSLNRHFTVSVFIVCKDKVLLHLHKKAKKMLPLGGHIEVNELPEEACIREAKEEAGLNVTLYNPIDINLKKSCDLSGEKLLINPIHTILGDVSPNHSHIDFVYYATTTSFETSPEIGESKILKWYSKEDLKNAHNIQENILVMATEALDLLEGHHHHHH”, the protein production entry was “not failed”.

As for “MSLNVIDLFSGVGGLSLGAARAGFDVKMAVEIDQHAINTHAINFPRSLHVQEDVSLLNAEIIKGFFKNDMPIDGIIGGPPCQGFSSIGKGNPDDSRNQLYMHFYRLVSELQPLFFLAENVPGIMQEKYSGIRNKAFNLVSGDYDILDPIKVKASDYGAPTIRTRYFFIGVKKSLKLDISDEVFMPKMIDPVTVKDALYGLPDIIDANWQSDSESWRTIKKDRKGGFYEKLWGQIPRNVGDTESIAKLKNNIISGCTGTLHSKIVQERYASLSFGETDKISRSTRLDPNGFCPTLRAGTARDKGSFQAVRPIHPYHPRVITPREAARLQGFPDWFRFHVTKWHSFRQIGNSVSPIVAEYILKGLYNLLNEGHHHHHH”, the protein production entry is “not failed”.

Take “MSLNVQTVAVIGSGTMGAGIAEVAASHGHQVLLYDISAEALTRAIDGIHARLNSRVTRGKLTAETCERTLKRLIPVTDIHALAAADLVIEAASERLEVKKALFAQLAEVCPPQTLLTTNTSSISITAIAAEIKNPERVAGLHFFNPAPVMKLVEVVSGLATAAEVVEQLCELTLSWGKQPVRCHSTPGFIVNRVARPYYSEAWRALEEQVAAPEVIDAALRDGAGFPMGPLELTDLIGQDVNFAVTCSVFNAFWQERRFLPSLVQQELVIGGRLGKKSGLGVYDWRAEREAVVGLEAVSDSFSPMKVEKKSDGVTEIDDVLLIETQGETAQALAIRLARPVVVIDKMAGKVVTIAAAAVNPDSATRKAIYYLQQQGKTVLQIADYPGMLIWRTVAMIINEALDALQKGVASEQDIDTAMRLGVNYPYGPLAWGAQLGWQRILRLLENLQHHYGEERYRPCSLLRQRALLESGYESEGHHHHHH”: the protein production entry was “not failed”.

Take “MSLPGLSAAADQTIKIGAQSMSESEIIASMLGQLIEHHTDLKTTTIKNLGSNAVQQQALMNGEIDIAATRYTGDALTGTLRMEPEKDPDKALALTQREFKKRYDLKWYDSYGFDNTYAFTVSKELADQYHLETVSDVKKWAPQLKLGVDNYWMKLKGNGYQDFTKTYGMTFGGTYPMQIGLVYDAVKSGKMDIVLAYSTDGRIKSYGLKMLKDDKQFFPPYDCSPVVPEKVLKEHPELEGIIKKMLGKIDTATMQELNYEVDGNLKEPSVVAKEYLEKHRYFESLEHHHHHH”: the protein production result is on record as “not failed”.

Turning to “MSLPTEMHHNLGAEKRSAVATTIDSFKERSQKVRALSDPNVRFVPFFGSSEWLRFDGAHPAVLAEKYNRSYRPYLLGQGGAASLNQYFGMQQMLPQLENKQVVYVISPQWFSKNGYDPAAFQQYFNGDQLTSFLKHQSGDQASQYAATRLLQQFPNVAMKDLVQKLASKEELSTADNEMIELLARFNERQASFFGQFSVRGYVNYDKHVAKYLKILPDQFSYQAIEDVVKADAEKNTSNNEMGMENYFYNEQIKKDLKKLKDSQKSFTYLKSPEYNDLQLVLTQFSKSKVNPIFIIPPVNKKWMDYAGLREDMYQQTVQKIRYQLESQGFTNIADFSKDGGEPFFMKDTIHLGWLGWLAFDKAVDPFLSNPTPAPTYHLNERFFSKDWATYDGDVKEFQEGHHHHHH”, the protein production result was “not failed”.

For “MSLQENISVTDSYSTGNAAQAMLEKLLQIYDVKMLVAQLNGVGENHWSAAILKRALANDSAWHRLSEKEFAHLQTLLPKPPEHHPHYAFRFIDLFAGIGGIRRGFESIGGQCVFTSEWNKHAVRTYKANHYCDPATHHFNEDIRDITLSHQEGVSDEAAAEHIRQHIPEHDVLLAGFPCQPFSLAGVSKKNSLGRAHGFACDTQGTLFFDVVRIIDARRPAMFVLENVKNLKSHDKGKTFRIIMQTLDELGYDVADAEDNGPDDPKIIDGKHFLPQHRERIVLVGFRRDLNLKADFTLRDISECFPAQRVTLAQLLDPMVEAKYILTPVLWKYLYRYAKKHQARGNGFGYGMVYPNNPQSVTRTLSARYYKDGAEILIDRGWDMATGEKDFDDPLNQQHRPRRLTPRECARLMGFEAPGEAKFRIPVSDTQAYRQFGNSVVVPVFAAVAKLLEPKIKQAVALRQQEAQHGRRSREGHHHHHH”, the protein production result is on record as “not failed”.

For the sequence “MSLQTLLFSFQGRIGRQAFWLWNICYYAMIAGFAMGSNLLFPDVAHLILPVFLLVVLVPDLAITAKRWHDRDKSSWWLLLNVPLVIGRMTIPAGELAVNTQPGMLETLISFVALLCGAWILVECGFLSGTDGSNRFGAEPKWIKKS”, the protein production entry was “failed”.

On to “MSLQTRKQREDAKREAWKKERQEKKALEAQQDSVSYVQAINALKNGSFVLEADNVVFRNGIMRFVSSNTNYVEVNDGQGIIQTAFTNFVYNWSPNGLGGVTVQGNVNGISMRQDKDGNVYYNYGINGIAVSATVSIVLTGGTNQASVTINPNFSGNTLTMNGYLVPYNEGHHHHHH”, for which the protein production result is given as “not failed”.

In the case of “MSLRAELNQGLIDFLKASPTPFHATASLARRLEAAGYRRLDERDAWHTETGGRYYVTRNDSSLIAIRLGRRSPLESGFRLVGAHTDSPCLRVKPNPEIARNGFLQLGVEVYGGALFAPWFDRDLSLAGRVTFRANGKLESRLVDFRKAIAVIPNLAIHLNRAANEGWPINAQNELPPIIAQLAPGEAADFRLLLDEQLLREHGITADVVLDYELSFYDTQSAAVVGLNDEFIAGARLDNLLSCHAGLEALLNAEGDENCILVCTDHEEVGSCSHCGADGPFLEQVLRRLLPEGDAFSRAIQRSLLVSADNAHGVHPNYADRHDANHGPALNGGPVIKINSNQRYATNSETAGFFRHLCQDSEVPVQSFVTRSDMGCGSTIGPITASQVGVRTVDIGLPTFAMHSIRELAGSHDLAHLVKVLGAFYASSELEGHHHHHH”, the protein production result is listed as “not failed”.

With “MSLRILIVDDEKLTRDGLIANINWKALSFDQIDQADDGINAIQIALKHPPNVLLTDVRMPRMDGIELVDNILKLYPDCSVIFMSGYSDKEYLKAAIKFRAIRYVEKPIDPSEIMDALKQSIQTVLQHQAQQDSEGHHHHHH”, the protein production entry is “not failed”.

Consider “MSLRPQTSFIFDLDGTLTDSVYQNVAAWKEALDAENIPLAMWRIHRKIGMSGGLMLKSLSRETGMSITDEQAERLSEKHAQAYERLQHQIIALPGAVELLETLDKENLKWCIATSGGIDTATINLKALKLDINKINIVTRDDVSYGKPDPDLFLAAAKKIGAPIDECLVIGDAIWDMLAARRCKATGVGLLSGGYDIGELERAGALRVYEDPLDLLNHLDEIASREGHHHHHH”, for which the protein production result was “not failed”.

For the sequence “MSLSAQADARPTPAPSFSGVTVDGKPFSSASLKGKAYIVNFFATWCPPCRSEIPDMVQVQKTWASRGFTFVGIAVNEQLPNVKNYMKTQGIIYPVMMATPELIRAFNGYIDGGITGIPTSFVIDASGNVSGVIVGPRSKADFDRIVKMALGAKAATKEGHHHHHH”, the protein production entry is “not failed”.

On to “MSLSDAVNKHPKSPNPQLCAVTLLGNLVATPDIRYRANPATAVTEIVLATSSKWLDKITNKYKEWTSYHHVKVEGELVELALLNANKGDIILLHGYLSNIKPKSTDKSTNHLGIVHANFVQKFEKGYTQAINQIHCSAQLTSKPKLMLTEQNKNITQANIVINQHIYNTDKQAWQTISVERAIHVWGKQAQYLAEHGDIGDELMLEGKLSYTSGVSKDQFIEVKNVHLFKGTLEHHHHHH”, for which the protein production entry is “not failed”.

As for “MSLSDLLYEIQDKVGLLTMNRISKHNAFDNQLLTEMRIRLDSAINDTNVRVIVLKANGKHFSAGADLTWMQSMANFTEEENLEDSLVLGNLMYSISQSPKPTIAMVQGAAFGGGAGLAAACDIAIASTSARFCFSEVKLGLIPAVISPYVVRAIGERAAKMLFMSAEVFDATRAYSLNLVQHCVPDDTLLEFTLKYASQISNNAPEAVKNSKQLAQYVANKKIDEELVRYTASLIAHKRVSDEGQEGLKAFLNKEIPNWNEGHHHHHH”, the protein production result is listed as “not failed”.
